Measured values from the supplement of paper PMC10567573.

B1: IKZF1 (parent)
chain: RDPFECNMCGYHSQDRYEFSSHIT

Variants of: B1
Experiment: protein stability index of a GFP-peptide fusion (GPS, HEK-293T) (PSI 1-6); higher = more stable
Settings: c terminus: a fixed tail appended
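Also: lentivirally expressed fusions sorted by FACS into six bins by GFP to DsRed ratio, PSI derived from sequencing read proportions per bin multiplied by bin number.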

Protein stability index of substitutions, site by site:
D15: F 1.76 | I 1.56 | V 1.8 | R 2.14 | C 2.32 | N 2.17 | E 1.87 | W 2.13 | G 1.98 | T 2.12 | L 1.81 | M 2.02 | S 1.54 | A 1.98 | K 1.65 | H 1.68 | P 2.01 | Y 1.66 | Q 2.34
F4: N 3.05 | E 2.66 | M 2.4 | I 1.89 | D 2.9 | G 2.68 | R 3.08 | Y 2.07 | S 2.52 | A 2.44 | L 2.17 | C 2.31 | W 2.27 | H 2.47 | P 2.54 | K 2.77 | Q 2.91 | V 2.2 | T 2.97
P3: D 2.99 | K 2.04 | A 1.64 | T 2.02 | Y 1.5 | I 1.91 | H 2.59 | S 2.03 | E 2.29 | N 1.94 | Q 2.18 | V 1.76 | W 1.69 | L 1.68 | R 2.04 | F 1.44 | G 1.94 | M 1.76 | C 2.21
S13: M 1.66 | H 3.15 | G 2.17 | W 2.28 | Q 2.39 | N 2.39 | Y 1.92 | V 1.91 | F 1.78 | L 1.75 | K 2.1 | I 1.91 | A 2.26 | C 1.74 | R 2.04 | D 2.49 | T 2.1 | E 2.53 | P 3
R16: D 2.85 | Q 2.33 | L 2.12 | M 2.78 | E 3.15 | C 2.23 | Y 1.75 | F 2.21 | A 2.3 | P 2.5 | H 2.51 | N 2.57 | V 2.42 | I 2.74 | T 2.6 | W 2.03 | K 2.01 | G 2.56 | S 1.98
E18: C 1.91 | G 2.63 | F 2.39 | L 2.21 | A 1.91 | I 2.18 | H 2.08 | D 2.38 | N 1.54 | M 1.54 | K 1.74
M8: R 2.02 | C 2.19 | L 2.18 | W 2.34 | V 2.3 | Y 2.4 | T 2.39 | P 2.64 | D 3.11 | G 2.07 | I 2.16 | H 2.17 | F 2.23 | E 3.08 | N 2.54 | A 1.81 | Q 2.21 | S 2.4 | K 2.52
D2: G 1.95 | M 1.68 | R 1.99 | P 1.98 | A 1.63 | S 1.73 | L 1.93 | C 2.19 | F 1.57 | I 2.2 | E 2.18 | K 1.96 | Y 1.77 | V 2.21 | W 1.92 | N 1.96 | Q 2.04 | T 1.82 | H 1.75
Y17: I 2.16 | W 2.54 | V 1.76 | D 3.1 | G 2.19 | A 2.28 | S 2.43 | M 2.16 | R 2.1 | C 2.38 | N 2.83 | L 2.22 | P 2.81 | E 3 | T 1.89 | Q 2.1 | F 2.07 | H 2.81 | K 2.21
R1: V 2.25 | P 2.43 | A 2.63 | Q 2.55 | W 2.2 | H 2.92 | E 2.67 | D 2.73 | L 2.31 | F 1.88 | N 2.44 | T 2.23 | G 2.49 | M 2.26 | S 2.1 | K 2.15 | C 2.47 | Y 1.73 | I 2.13
G10: M 1.82 | W 1.73 | F 1.81 | R 2.13 | Q 2.58 | E 2.79 | I 1.92 | V 2.07 | S 2.7 | C 2.49 | N 2.4 | Y 2.66 | A 2.16 | H 2.33 | T 2.69 | D 2.8 | K 2.32 | L 2.08 | P 2.44
Y11: I 1.86 | P 2.69 | C 2.13 | E 3.29 | R 2.62 | K 3.13 | N 2.71 | L 2.65 | T 2.6 | G 3.49 | D 3.51 | F 2.01 | H 2.71 | W 1.45 | S 2.62 | Q 2.61 | A 2.58 | V 2.45 | M 2.59
Q14: M 1.86 | V 1.85 | I 2.13 | F 1.47 | R 2.25 | H 2.22 | S 2.43 | K 1.97 | W 1.22 | P 2.3 | T 2.17 | A 1.98 | C 1.87 | D 2.09 | E 2.29 | L 1.93 | Y 2.31 | N 2.42 | G 2.38
C6: F 1.96 | G 2.3 | V 2.5 | Q 2.38 | W 2.5 | E 3.58 | S 2.5 | T 3.21 | Y 2.04 | D 3.8 | K 2.49 | R 2.06 | P 2.23 | L 1.99 | I 2.14 | H 2.43 | M 2.02 | N 2.56 | A 2.5
E5: Y 1.85 | G 1.82 | Q 2.06 | I 2.38 | N 1.71 | R 1.92 | T 2.38 | M 1.88 | C 2.11 | H 1.9 | A 2.13 | D 2.7 | K 2.07 | W 1.59 | P 1.91 | V 2.01 | F 1.78 | S 1.33 | L 2.08
N7: R 1.49 | V 2.04 | A 1.75 | T 2.18 | L 1.79 | D 2.51 | E 2.29 | F 1.33 | M 1.97 | I 2.05 | P 3.61 | H 2.25 | G 2.25 | Q 2.01 | Y 1.83 | S 1.72 | C 1.89 | K 2.37 | W 1.93
H12: S 2.06 | P 2.49 | R 2.23 | V 1.75 | F 2.15 | M 1.5 | L 2.69 | T 2.53 | A 2.6 | Q 3.01 | G 2.25 | K 2.27 | Y 1.97 | D 2.69 | I 2 | C 1.82 | W 1.63 | E 2.39 | N 2.72
C9: Y 2.63 | G 3.02 | W 2.36 | Q 2.57 | K 3.19 | A 2.98 | M 3.06 | N 3.28 | D 3.83 | F 2.34 | R 3.24 | T 3.55 | L 3.05 | V 3.06 | E 3.7 | H 2.63 | S 3.42 | P 3.09 | I 3.08
